Laboratory results taken from IntAct's records for PubMed 20067578.

B1: Dual specificity mitogen-activated protein kinase kinase 6 (Homo sapiens), P52564 (parent)
chain: MSQSKGKKRNPGLKIPKEAFEQPQTSSTPPRDLDSKACISIGNQNFEVKADDLEPIMELGRGAYGVVEKMRHVPSGQIMAVKRIRATVNSQEQKRLLMDLDISMRTVDCPFTVTFYGALFREGDVWICMELMDTSLDKFYKQVIDKGQTIPEDILGKIAVSIVKALEHLHSKLSVIHRDVKPSNVLINALGQVKMCDFGISGYLVDSVAKTIDAGCKPYMAPERINPELNQKGYSVKSDIWSLGITMIELAILRFPYDSWGTPFQQLKQVVEEPSPQLPADKFSAEFVDFTSQCLKKNSKERPTYPELMQHPFFTLHESKGTDVASFVKLILGD

Variants of: B1
Details: with lrrk2_human LRRK2, Q5S007
lrrk2_human LRRK2, Q5S007, sequence (Q5S007 whole entry): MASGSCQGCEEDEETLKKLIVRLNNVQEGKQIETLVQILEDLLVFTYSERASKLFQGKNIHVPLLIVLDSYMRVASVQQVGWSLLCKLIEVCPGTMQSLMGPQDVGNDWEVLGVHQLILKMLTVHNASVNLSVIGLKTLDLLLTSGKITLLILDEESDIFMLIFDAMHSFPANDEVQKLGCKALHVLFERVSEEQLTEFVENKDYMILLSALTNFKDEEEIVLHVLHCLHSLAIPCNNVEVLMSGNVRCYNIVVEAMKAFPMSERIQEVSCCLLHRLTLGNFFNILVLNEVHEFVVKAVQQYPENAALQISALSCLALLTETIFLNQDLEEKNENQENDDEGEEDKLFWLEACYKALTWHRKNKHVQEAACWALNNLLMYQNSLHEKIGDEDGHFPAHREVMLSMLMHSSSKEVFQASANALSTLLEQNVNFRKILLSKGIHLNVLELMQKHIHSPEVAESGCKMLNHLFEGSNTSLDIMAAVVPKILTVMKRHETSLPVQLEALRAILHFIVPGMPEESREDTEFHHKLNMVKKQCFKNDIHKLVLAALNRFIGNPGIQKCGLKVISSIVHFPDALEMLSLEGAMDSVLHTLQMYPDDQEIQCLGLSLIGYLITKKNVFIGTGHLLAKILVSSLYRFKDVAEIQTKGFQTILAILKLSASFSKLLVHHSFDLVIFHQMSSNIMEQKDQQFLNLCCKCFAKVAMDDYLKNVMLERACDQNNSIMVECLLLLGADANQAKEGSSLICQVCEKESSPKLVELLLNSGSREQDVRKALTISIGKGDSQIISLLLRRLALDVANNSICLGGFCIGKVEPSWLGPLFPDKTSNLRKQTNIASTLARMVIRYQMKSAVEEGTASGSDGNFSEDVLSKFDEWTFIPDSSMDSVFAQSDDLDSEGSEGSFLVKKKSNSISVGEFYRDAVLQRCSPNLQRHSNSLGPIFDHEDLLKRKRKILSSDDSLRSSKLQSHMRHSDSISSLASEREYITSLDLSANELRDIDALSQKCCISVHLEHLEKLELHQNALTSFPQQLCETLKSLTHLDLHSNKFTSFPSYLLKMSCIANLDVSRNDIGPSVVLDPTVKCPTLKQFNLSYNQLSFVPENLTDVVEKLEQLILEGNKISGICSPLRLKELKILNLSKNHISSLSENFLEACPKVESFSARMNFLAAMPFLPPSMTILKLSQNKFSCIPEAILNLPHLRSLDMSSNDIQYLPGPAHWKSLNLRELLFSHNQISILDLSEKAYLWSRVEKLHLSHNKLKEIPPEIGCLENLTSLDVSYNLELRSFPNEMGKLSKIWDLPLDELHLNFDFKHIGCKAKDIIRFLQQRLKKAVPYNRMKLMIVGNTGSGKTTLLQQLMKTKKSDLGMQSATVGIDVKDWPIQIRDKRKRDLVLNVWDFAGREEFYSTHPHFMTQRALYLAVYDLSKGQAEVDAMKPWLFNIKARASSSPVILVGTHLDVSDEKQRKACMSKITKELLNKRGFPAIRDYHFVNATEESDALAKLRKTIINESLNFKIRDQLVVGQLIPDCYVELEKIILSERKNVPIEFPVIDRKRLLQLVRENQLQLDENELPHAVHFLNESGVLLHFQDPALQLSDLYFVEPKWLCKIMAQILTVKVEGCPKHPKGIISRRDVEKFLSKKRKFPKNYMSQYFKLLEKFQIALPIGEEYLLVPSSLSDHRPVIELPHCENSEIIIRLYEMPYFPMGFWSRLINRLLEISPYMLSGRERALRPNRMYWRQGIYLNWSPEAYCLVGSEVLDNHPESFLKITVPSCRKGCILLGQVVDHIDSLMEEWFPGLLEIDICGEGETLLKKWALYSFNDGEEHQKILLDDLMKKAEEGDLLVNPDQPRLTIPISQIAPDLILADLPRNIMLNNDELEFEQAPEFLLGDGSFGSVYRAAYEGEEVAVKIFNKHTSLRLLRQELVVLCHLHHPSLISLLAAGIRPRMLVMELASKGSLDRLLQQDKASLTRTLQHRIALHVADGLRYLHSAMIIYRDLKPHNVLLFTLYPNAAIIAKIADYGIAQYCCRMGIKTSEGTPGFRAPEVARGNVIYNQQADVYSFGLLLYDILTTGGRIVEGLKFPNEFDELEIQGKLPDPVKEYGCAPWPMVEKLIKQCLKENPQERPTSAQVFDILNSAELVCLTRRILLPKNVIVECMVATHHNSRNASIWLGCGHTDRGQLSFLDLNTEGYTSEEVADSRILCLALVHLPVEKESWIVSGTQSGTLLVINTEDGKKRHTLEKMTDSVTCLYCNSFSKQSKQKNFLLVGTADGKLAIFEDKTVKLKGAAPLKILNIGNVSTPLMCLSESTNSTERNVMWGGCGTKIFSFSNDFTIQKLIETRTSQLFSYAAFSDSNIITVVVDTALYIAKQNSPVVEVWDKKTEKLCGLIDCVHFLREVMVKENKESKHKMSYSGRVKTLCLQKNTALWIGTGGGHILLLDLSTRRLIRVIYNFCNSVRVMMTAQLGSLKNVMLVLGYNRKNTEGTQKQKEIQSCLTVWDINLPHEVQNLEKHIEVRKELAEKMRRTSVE

Variant	effect of a mutation on the interaction
K82A	decreasing interaction
